Experimental data: article PMC10397247
Values belong to the binder of their own block, whether it stands above or below them.

Columns and labels:
Experiment in all cases: two-hybrid library CCmax;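 also: natural log of median RNA to DNA barcode read ratio; higher means stronger binding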
4H3381-AA = target: T1, 4H3381-AA; conditions: mean of both orientations
T1 chain: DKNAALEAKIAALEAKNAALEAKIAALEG

4H3590-AA = target: T2, 4H3590-AA; conditions: mean of both orientations
T2 chain: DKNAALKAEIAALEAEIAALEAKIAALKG

4H909-AA = target: T3, 4H909-AA; conditions: mean of both orientations
T3 chain: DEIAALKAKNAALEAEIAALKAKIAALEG

4H310-AA = target: T4, 4H310-AA; conditions: mean of both orientations
T4 chain: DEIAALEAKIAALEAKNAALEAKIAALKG

4H94-AA = target: T5, 4H94-AA; conditions: mean of both orientations
T5 chain: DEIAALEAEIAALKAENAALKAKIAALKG

4H485-AA = target: T6, 4H485-AA; conditions: mean of both orientations
T6 chain: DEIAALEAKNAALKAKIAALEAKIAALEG

4H3016-AA = target: T7, 4H3016-AA; conditions: mean of both orientations
T7 chain: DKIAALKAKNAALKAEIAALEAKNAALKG

4H570-AA = target: T8, 4H570-AA; conditions: mean of both orientations
T8 chain: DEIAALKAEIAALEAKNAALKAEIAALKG

4H458-AA = target: T9, 4H458-AA; conditions: mean of both orientations
T9 chain: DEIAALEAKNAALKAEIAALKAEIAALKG

4H3009-AA = target: T10, 4H3009-AA; conditions: mean of both orientations
T10 chain: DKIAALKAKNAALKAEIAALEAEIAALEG

4H2725-AA = target: T11, 4H2725-AA; conditions: mean of both orientations
T11 chain: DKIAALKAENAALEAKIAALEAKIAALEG

4H891-AA = target: T12, 4H891-AA; conditions: mean of both orientations
T12 chain: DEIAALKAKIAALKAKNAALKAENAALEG

4H3865-AA = target: T13, 4H3865-AA; conditions: mean of both orientations
T13 chain: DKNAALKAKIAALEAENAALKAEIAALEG

4H3697-AA = target: T14, 4H3697-AA; conditions: mean of both orientations
T14 chain: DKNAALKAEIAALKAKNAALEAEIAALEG

4H3395-AA = target: T15, 4H3395-AA; conditions: mean of both orientations
T15 chain: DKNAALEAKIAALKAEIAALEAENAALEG

4H3165-AA = target: T16, 4H3165-AA; conditions: mean of both orientations
T16 chain: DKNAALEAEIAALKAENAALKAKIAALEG

4H2698-AA = target: T17, 4H2698-AA
T17 chain: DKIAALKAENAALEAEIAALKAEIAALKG

4H3130-AA = target: T18, 4H3130-AA; conditions: mean of both orientations
T18 chain: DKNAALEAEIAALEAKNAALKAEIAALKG

4H930-AA = target: T19, 4H930-AA; conditions: mean of both orientations
T19 chain: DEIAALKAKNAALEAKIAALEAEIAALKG

4H3410-AA = target: T20, 4H3410-AA; conditions: mean of both orientations
T20 chain: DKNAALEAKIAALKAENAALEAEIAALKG

4H629-AA = target: T21, 4H629-AA; conditions: mean of both orientations
T21 chain: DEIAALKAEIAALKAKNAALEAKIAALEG

4H3753-AA = target: T22, 4H3753-AA; conditions: mean of both orientations
T22 chain: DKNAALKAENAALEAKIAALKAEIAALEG

4H710-AA = target: T23, 4H710-AA; conditions: mean of both orientations
T23 chain: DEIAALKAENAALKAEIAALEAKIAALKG

4H745-AA = target: T24, 4H745-AA; conditions: mean of both orientations
T24 chain: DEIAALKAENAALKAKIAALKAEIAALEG

4H2865-AA = target: T25, 4H2865-AA; conditions: mean of both orientations
T25 chain: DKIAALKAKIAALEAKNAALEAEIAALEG

4H850-AA = target: T26, 4H850-AA; conditions: mean of both orientations
T26 chain: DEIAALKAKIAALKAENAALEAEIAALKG

4H3120-AA = target: T27, 4H3120-AA; conditions: mean of both orientations
T27 chain: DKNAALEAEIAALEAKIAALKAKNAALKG

4H536-AA = target: T28, 4H536-AA; conditions: mean of both orientations
T28 chain: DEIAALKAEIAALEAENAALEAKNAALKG

4H797-AA = target: T29, 4H797-AA; conditions: mean of both orientations
T29 chain: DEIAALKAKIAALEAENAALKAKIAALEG

4H3921-AA = target: T30, 4H3921-AA; conditions: mean of both orientations
T30 chain: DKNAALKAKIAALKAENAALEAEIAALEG

4H3343-AA = target: T31, 4H3343-AA; conditions: mean of both orientations
T31 chain: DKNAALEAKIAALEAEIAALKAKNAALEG

4H3627-AA = target: T32, 4H3627-AA; conditions: mean of both orientations
T32 chain: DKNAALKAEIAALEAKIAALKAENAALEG

4H881-AA = target: T33, 4H881-AA; conditions: mean of both orientations
T33 chain: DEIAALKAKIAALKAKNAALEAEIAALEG

4H3427-AA = target: T34, 4H3427-AA; conditions: mean of both orientations
T34 chain: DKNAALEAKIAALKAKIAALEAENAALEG

4H2754-AA = target: T35, 4H2754-AA; conditions: mean of both orientations
T35 chain: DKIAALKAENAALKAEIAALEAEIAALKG

4H780-AA = target: T36, 4H780-AA; conditions: mean of both orientations
T36 chain: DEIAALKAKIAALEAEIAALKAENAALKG

4H454-AA = target: T37, 4H454-AA; conditions: mean of both orientations
T37 chain: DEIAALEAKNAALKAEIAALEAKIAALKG

4H317-AA = target: T38, 4H317-AA; conditions: mean of both orientations
T38 chain: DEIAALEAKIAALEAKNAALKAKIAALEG

4H3655-AA = target: T39, 4H3655-AA; conditions: mean of both orientations
T39 chain: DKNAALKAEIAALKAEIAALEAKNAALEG

4H2617-AA = target: T40, 4H2617-AA
T40 chain: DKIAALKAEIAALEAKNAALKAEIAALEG

4H48-AA = target: T41, 4H48-AA; conditions: mean of both orientations
T41 chain: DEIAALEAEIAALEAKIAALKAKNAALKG

4H566-AA = target: T42, 4H566-AA; conditions: mean of both orientations
T42 chain: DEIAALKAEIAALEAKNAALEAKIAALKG

4H717-AA = target: T43, 4H717-AA; conditions: mean of both orientations
T43 chain: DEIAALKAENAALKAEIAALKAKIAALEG

4H2949-AA = target: T44, 4H2949-AA; conditions: mean of both orientations
T44 chain: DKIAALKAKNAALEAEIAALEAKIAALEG

4H3606-AA = target: T45, 4H3606-AA; conditions: mean of both orientations
T45 chain: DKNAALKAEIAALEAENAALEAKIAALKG

4H3112-AA = target: T46, 4H3112-AA
T46 chain: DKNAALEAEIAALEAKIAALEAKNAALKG

4H2729-AA = target: T47, 4H2729-AA; conditions: mean of both orientations
T47 chain: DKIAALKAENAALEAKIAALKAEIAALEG

4H2642-AA = target: T48, 4H2642-AA; conditions: mean of both orientations
T48 chain: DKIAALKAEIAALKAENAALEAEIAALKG

4H2837-AA = target: T49, 4H2837-AA; conditions: mean of both orientations
T49 chain: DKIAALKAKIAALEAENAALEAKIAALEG

4H605-AA = target: T50, 4H605-AA; conditions: mean of both orientations
T50 chain: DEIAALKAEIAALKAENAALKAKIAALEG

4H794-AA = target: T51, 4H794-AA; conditions: mean of both orientations
T51 chain: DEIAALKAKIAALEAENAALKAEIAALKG

4H2883-AA = target: T52, 4H2883-AA; conditions: mean of both orientations
T52 chain: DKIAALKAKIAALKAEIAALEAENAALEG

4H906-AA = target: T53, 4H906-AA; conditions: mean of both orientations
T53 chain: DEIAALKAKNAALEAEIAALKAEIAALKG

4H993-AA = target: T54, 4H993-AA; conditions: mean of both orientations
T54 chain: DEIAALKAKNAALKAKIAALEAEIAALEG

4H429-AA = target: T55, 4H429-AA; conditions: mean of both orientations
T55 chain: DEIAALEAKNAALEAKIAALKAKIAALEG

4H2944-AA = target: T56, 4H2944-AA; conditions: mean of both orientations
T56 chain: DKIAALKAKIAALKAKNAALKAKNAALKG

4H342-AA = target: T57, 4H342-AA; conditions: mean of both orientations
T57 chain: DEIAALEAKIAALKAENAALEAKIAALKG

4H678-AA = target: T58, 4H678-AA; conditions: mean of both orientations
T58 chain: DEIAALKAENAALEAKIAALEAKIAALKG

4H3844-AA = target: T59, 4H3844-AA; conditions: mean of both orientations
T59 chain: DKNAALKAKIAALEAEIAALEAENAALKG

4H335-AA = target: T60, 4H335-AA; conditions: mean of both orientations
T60 chain: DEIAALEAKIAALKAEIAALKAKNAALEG

interaction score (4H3381-AA): -0.904 | interaction score (4H3590-AA): -0.95 | interaction score (4H909-AA): -0.0319 | interaction score (4H310-AA): -0.185 | interaction score (4H94-AA): -0.915 | interaction score (4H485-AA): 1.49 | interaction score (4H3016-AA): 0.539 | interaction score (4H570-AA): 0.35 | interaction score (4H458-AA): 2.26 | interaction score (4H3009-AA): 2.02 | interaction score (4H2725-AA): -1.02 | interaction score (4H891-AA): -1.59 | interaction score (4H3865-AA): -1.07 | interaction score (4H3697-AA): -1.12 | interaction score (4H3395-AA): -1.65 | interaction score (4H3165-AA): -1.39 | interaction score (4H2698-AA): 2.27 | interaction score (4H3130-AA): 1.19 | interaction score (4H930-AA): -0.113 | interaction score (4H3410-AA): -1.56 | interaction score (4H629-AA): -1.54 | interaction score (4H3753-AA): -1 | interaction score (4H710-AA): 1.79 | interaction score (4H745-AA): 2.2 | interaction score (4H2865-AA): 0.889 | interaction score (4H850-AA): -0.992 | interaction score (4H3120-AA): -1.3 | interaction score (4H536-AA): -1.49 | interaction score (4H797-AA): -1.25
Binder: DKIAALKAENAALEAEIAALKAEIAALKG [4H2698-AA]

interaction score (4H3921-AA): 0.979 | interaction score (4H3343-AA): -1.31 | interaction score (4H3627-AA): 0.895 | interaction score (4H881-AA): 1.37 | interaction score (4H3427-AA): -0.774 | interaction score (4H2754-AA): -1.08 | interaction score (4H780-AA): -1.9 | interaction score (4H454-AA): 2.09 | interaction score (4H317-AA): 1.65 | interaction score (4H3655-AA): -1.76 | interaction score (4H2617-AA): 1.29 | interaction score (4H48-AA): -0.511 | interaction score (4H566-AA): 2.42 | interaction score (4H717-AA): -2.09 | interaction score (4H2949-AA): 1.53 | interaction score (4H3606-AA): 2.03 | interaction score (4H3112-AA): -1.06 | interaction score (4H2729-AA): 2.54 | interaction score (4H2642-AA): 2.25 | interaction score (4H2837-AA): 2.22 | interaction score (4H605-AA): 0.918 | interaction score (4H794-AA): 1.15 | interaction score (4H2883-AA): -1.02 | interaction score (4H906-AA): -0.74 | interaction score (4H993-AA): -0.54 | interaction score (4H429-AA): 0.393 | interaction score (4H2944-AA): -0.31 | interaction score (4H342-AA): 2.32 | interaction score (4H678-AA): 0.485 | interaction score (4H3844-AA): -1.39 | interaction score (4H335-AA): 0.00978
Binder: DKIAALKAEIAALEAKNAALKAEIAALEG [4H2617-AA]
